Reference: patent US20260098270
Where two headings read alike, the source gives them in different places.

Assays:
Troponin I (cardiac) = Troponin I (cardiac) (UniProt P19429); assay: filter
[1] = molecular target: Influenza hemagglutinin H3N2-HA (Influenza A virus) (UniProt P03438); assay: BLI
[2] = molecular target: Influenza hemagglutinin H3N2-HA (Influenza A virus) (UniProt P03438); assay: filter; settings: dot blot
[3] = molecular target: Influenza hemagglutinin H5N1-HA (Influenza A virus) (UniProt Q8QPL1); assay: filter
[4] = molecular target: Influenza hemagglutinin H1N1-HA (Influenza A virus) (UniProt Q289M7)
[5] = system: Control lentivirus without spike; assay: filter; settings: three identical arms joined by Trebler, dot blot

Work on “GGCAGCAGGAAGACAAGACATGGGTGGCGGGGACGGGGCGATGGGAACTTAGATTGCTAGTGGTTCTGTGGTTGCTCTGT [TnAp1]” yielded a Kd (Troponin I (cardiac)) of 125000 pM.

Work on “GGCAGCAGGAAGACAAGACATGGGTGGCGGGGACGGGGCGATGGGAACTTAGATTGCTAGTGGTTCTGTGGTTGCTCTGTTTTTTCTCTCGC [Trimeric (trident) TnAp1]” yielded a Kd (Troponin I (cardiac); three identical arms joined by Trebler, root TTTTT-Biotin) of 4000 pM.

For “GGGTTTGGGTTGGGTTGGGTTTTTGGGTTTGGGTTGGGTTGGGAAAAA [RHA06]”, the Kd [1] was 8000 pM.

In the case of “GGGTTTGGGTTGGGTTGGGTTTTTGGGTTTGGGTTGGGTTGGGAAAAATTTTTCTCTCGC [Trident RHA06 + antisense 1:1]”, the Kd ([2]; Trebler-joined arms, antisense DNA of RHA06 hybridised at AS:aptamer 1:1, one arm blocked) is reported as 310 pM.

In the case of “GGGTTTGGGTTGGGTTGGGTTTTTGGGTTTGGGTTGGGTTGGGAAAAATTTTTCTCTCGC [Trident RHA06 + antisense 2:1]”, the Kd ([2]; Trebler-joined arms, antisense DNA of RHA06 hybridised at AS:aptamer 2:1, two arms blocked) is reported as 7900 pM.

“GGGTTTGGGTTGGGTTGGGTTTTTGGGTTTGGGTTGGGTTGGGAAAAATTTTTCTCTCGC [Trimeric (trident) RHA06]” gave a Kd [3] of 130 pM, a Kd ([2]; three identical arms (SEQ 12) joined by Trebler, root TTTTT-Biotin, RT) of 90 pM and a Kd ([1]; three identical arms (SEQ 12) joined by Trebler, root TTTTT-Biotin) of 120 pM. It also gave a Kd [4] of 70 pM.

For “TTACGTCAAGGTGTCACTCCGTAGGGTTTGGCTCCGGGCCTGGCGTCGGTCGTCTCTCGCGAAGCATCTCTTTGGCGTGTTTTTTTTTTTTTTT [TMSA52]”, the Kd [5] was > 500 pM.
